Reference: publication PMC4539046 (Neuropharmacology, 2015)
Values belong to the binder of their own block, whether it stands above or below them. Where no end group is shown, it is not given here.

Key:
Assay in all cases: AlphaScreen or HTRF
GST-PSD95(1–392) [1] = target: T1, GST-PSD95(1–392) (UniProt P31016 1-392)
GST-PSD95(1–392) [2] = target: T1, GST-PSD95(1–392); remark: listed apart in the source
His-PSD95(1–392) = His-PSD95(1–392) (UniProt P31016 1-392)

EC50 (GST-PSD95(1–392) [1]): 30 nM
B1: His-nNOS(1–299) (domain or fragment, UniProt P29476-1 1-299, looked up)
chain: MEENTFGVQQIQPNVISVRLFKRKVGGLGFLVKERVSKPPVIISDLIRGGAAEQSGLIQAGDIILAVNDRPLVDLSYDSALEVLRGIASETHVVLILRGPEGFTTHLETTFTGDGTPKTIRVTQPLGPPTKAVDLSHQPSASKDQSLAVDRVTGLGNGPQHAQGHGQGAGSVSQANGVAIDPTMKSTKANLQDIGEHDELLKEIEPVLSILNSGSKATNRGGPAKAEMKDTGIQVDRDLDGKSHKAPPLGGDNDRVFNDLWGKDNVPVILNNPYSEKEQSPTSGKQSPTKNGSPSRCPR

IC50 (GST-PSD95(1–392) [2]): 30 nM
B2: nNOS(1–130) without any tag (domain or fragment, UniProt P29476-1 1-130, looked up)
chain: MEENTFGVQQIQPNVISVRLFKRKVGGLGFLVKERVSKPPVIISDLIRGGAAEQSGLIQAGDIILAVNDRPLVDLSYDSALEVLRGIASETHVVLILRGPEGFTTHLETTFTGDGTPKTIRVTQPLGPPT

EC50 (His-PSD95(1–392)): 10 nM
Binder: SLKPGTVLPPPPYRHRNTVV (peptide, UniProt Q15303 1289-1308, looked up, not fully specified (N-terminus); also: biotin (position not given here)) [Biot-ErbB4(1289–1308)]
